Experiment: yeast display, Sf9 membrane polyspecificity reagent, FACS + sequencing; frameworks hold sequencing errors
In short: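 Synthetic nanobody libraries on Saccharomyces cerevisiae BJ5465 were galactose-induced for 36–48 hours, stained 1 hour at 4 °C with 10% biotinylated, detergent-solubilized Sf9 membrane reagent and enriched on streptavidin microbeads. FACS then separated cells into low and high (top ~1%) gates by anti-HA (expression) and streptavidin (reagent binding) fluorescence. Genes were colony-PCR amplified, MiSeq 2 × 250 sequenced and CDR-length filtered. A clone's polyreactivity label is that of its gate of origin.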

Sequence	polyreactivity (PSR sort gate)
QVQLEESGGGLVQAGGSLRLSCAASGRIFSPNVRGWYRKATGKERELVAGITSSGGSTYYADSVKGRLTISRDNAKNTVYLQMNSLKPEYTAVYYCAAPWVGTFVSGRGYYWGQGTQVTVSS	low polyreactivity
QVQLVESGGGLVQAGGSLRLSCAASGSILFRYGMGWYRQAPGKERELVAAINSGGSTYADSVKGRFTISRDNAKNTVYLQMNSLKPEDTAVYYCAKVAWQAHGGPGEFDYWGQGTQVTVSS	low polyreactivity
QVQLVESGGGIVQAGGSLRLSCAASGRTIPYHAMGWYRQAPGKERELDAAISYSGGRTYYADCVKGRFTISRDNAKNSVYLLMNSLKPDDTAVYYCNALGSGREDVYWGQGTQVTVSS	high polyreactivity
QVQHVESAGGLVQAAGSLRLSCAASGLSYSRYAMGWYRQAPGKERELVAAITWSGSSTYYADSVKGRFTISRDNAKNTVYLQMNSLKPEDTAVYYCAGRYGYSRGPYYRSDYWGQGTQVTVSS	high polyreactivity
QVQLVESGGGLVQAGGSLRLSCAASGFTFVGYAMGWYRQAPGKESELVAAITSSGGSTYYADSVKGRFTISRDNAKNTVYLQMNSLKPEDTAVYYCAAPAPVLSTQKRFDSWGQGTQVTVSS	low polyreactivity
QVQLVESRGGLVQAGGSLRLSCPDSGYIFFTNSMGWYRQEPGKERELVAAISSAGRTKYADSVKGRFTISRDNAKNTVYLQMNSLKPEDTAVYYCNKAFYYLWGTGYDYWGQGTQVTVSS	low polyreactivity
QVQLVESGGGLVQAGGSLRLSCAASGRIFRYNAMGWYRQPPGKEREFVARISVITGRTYYADSVKGRFTISRDNAKNTVYLQMNSLKPEDTAVYFCAADAGYNYRYLLRGDYWGQGTQVTVSS	high polyreactivity
QVQLVESGGGLVQAGGSLRLRCAASGYTFKHYTMGWYREAPGKERELVAAISRRGGRTYYADSVKGRFTISRDNAKNTVYLQMNSLKPEDTAVYYCNRVPRARKGDYWGQGTQVTVSS	high polyreactivity
QVQLVESGGGLVQAGGSLRLSCAASGITFQRYAMGWYRQAPGKERELVAAITRRGGSTYYADSVKGRFTISRDNAKNTVYLQMNILKPEDTAVYYCAADLFFKARGYDYWGQGTQVTVSS	high polyreactivity
QVQLVESGGGLVQAGGSLRLSCAASGSTLFSYAMGWYRQAPRKEREFVAAISRRGGSTYYADSVKGRFTISRDNAKNTVYLQMNSLKPEVTAVYYCNTVRVHGFPIDRIYVYWGQGTQVTVSS	high polyreactivity
QVQLVESGGGLVQAGGSLRLSCAASGITLKPNAMGWYRQAPGKERELVAAIDSGGSTNYADSVKGRFTISRDNAKNTVYLQMNSLKPEDTAVYYCAAPYQDRDLQVSYSTYEGGYWGQGTQVTVSS	low polyreactivity
QVQLEESGGGLVQAGGSLRLSCAASGITFNQYVMGWYRQAPGKEMELVAAISRSGATTYYADSVKGRFTISRDNAKNTVYLQMNSLKPEDTAVYYCAVRGSVSYTRYGYWGQGTQVTVSS	high polyreactivity
QVQLVESGGGLVQAGGSLRLSCAASGITFEYYTMGWYRQAPGKERELVAAITSGGSTYYADSVKGRFTISRDNAKNTVYLQMNSLKPEDTAVYYCNADWSATSGEWTWFQYDYWGQGTQVTVSS	high polyreactivity
QVHLVESGGGLVQAGGSLRLSCAASGRTCRINAMGWYRQAPGKERELVAAITSGGRTNYADSVKGRFTISRDNAKNTVYLQMNSLKPEDTAVYYCAADTTHWYYLGYGYWGQGNQVTVSS	low polyreactivity
HVQLVESGGGLVQAGGSLRLSCAASGSTFGENAMGWYRQAPGKERELVAAITWGTNTYYADSVKGRFTISRDNAKNTVYLQMNSLKPEDTAVYYCAAQFQTRGWRYVYWGQGTQVSVSS	low polyreactivity
QVQLVESGGGLVQAGGSLRISCAASGLTSYSYAMGWYRQAPGKERELVAAITVNGGRTYYADSVKGRFTISRDNAKNTVYLQMNSLKPEDTAVYYCAAREVTGRPRSYYYWGQGTQVTVSS	low polyreactivity
QVHLVESGGGLVQAGGSLRLSCAASGFIFTDYAMGWYRQAPGKERELVAAISSGGRTYYADSVKGRFTISRDNAKNTVYLQMNSLKPEDTAVYYCARGGRAEGWGQGTQVTVSS	high polyreactivity
QVQLVESGGGLVQAGGSLRLSCAASGRIFPFYVMGWYRQAPGKERELVATINWSGGSTYYADSVKGRFTISRDNAKNTVYLQMNSLKPEDSAVYYCNAAPSEDYDYWGQGTQVTVSS	low polyreactivity
QVQLVESGGGLVQAGGSLRLTCAASGITLYNYAMGWYRQAPGKERELVAAISLSGGRTYYADSVKGRFTISRDNAKNTVYLQMNSLKPEDTAVYYCAADWLNSDPYNYWGQGTQVTVSS	low polyreactivity
QVQLVESGGGLVQAGGSLRLSCAASGRTFYRNAMGWYRQAPGKETELVAAITWSGVSTYYADSVKGRFTISRDNAKNTVYIQMNSLKPEDTAVYYCSRARVLRNGHYFQLRNYDYWGQGPQVTVSS	high polyreactivity
QVQLVESGGGLVPAGGSLRLSCAASGFTFSYYAMGWYRQAPGKERELVAAISWSGGRTYYADSVKGRFTISRDNAKNTVYLEMNRLKPEDTAVYYCAVVYYGSIFVLEYDYWGQGTQVTVSS	high polyreactivity
QVQLVESGGALVQAGGSLRLICAASGSTFDSNVKGWSRTAPGKERELVAVINGSGSNTYYADSVKGRFTISRDNAKNTVYLQMNSLKPEDTAVYYCNKRYWGGRYGYDYWGQGTQVTVSS	high polyreactivity

Sequence	polyreactivity (PSR sort gate)
QVQLVETGGGLVQAGGRLRLSCAASGRIFVYYDMGWSIQAPGKERELVAAITSGGDRTYYADSVKGRFTISRDNAKNTVYLQMNSLKPEDTAVYYCNTYYYPYGYWGQGTQVTVSS	high polyreactivity
QVQRVESGGRLVQAGGSLRLSCAPSGFTFQDYAMGWSRQAPGKERELVAAISRNGGSTYYADSVKGRFTISRDNAKNTVYLQMNSLKPEDTAVYYCNADSHHRRGSRDYCGQGTQVTVSS	low polyreactivity
QVQLVESGGGLVQAGGSLRLSCASSGRIFVFNAMGWYRPAPGKERELVAAINWSGGTTYYADSVKGRFTISRDNAKNTVYLQMNSVNPEDTAVYYCNAYLNRRMGYWGQGTQVTVSS	high polyreactivity
QVQLVESGGGLVQAGGSLRLSCAASGFTFEKNAMGWYGQAPGKERELVAAISRGGSTYADSVKGRFTISRDNAKTTVDLQMNSLKPEDTAVYYCAADTVYIFSSAINGEFGYWGQGTQVTVSS	low polyreactivity
QVQLVESGGGLVQAGGSLRLSCAASGFTFAYYAMGWYRPAPGKERELVAAISSGGSTDYADSVKGRFTISRDNAKNTVYLQMNSLKPEDTAVYYCNAVVVRLWYDYDYWGQGTQVTVSS	low polyreactivity
QVQLVESGGGLVQAGGSHRLRCAAYGFIFIYAMGRYRQAPGKQRELVASIESGVSTDYADSVKGRFTISRDNAKNSVYFQMNSLKQEDTAVYYCAADQWSSLNYDYWGQGSQVTVSS	low polyreactivity
QVQLEESGGGLVQAGGSLRLSCAAYGSIIPFYPMGWYRQAPWTERELVAAISDRGGSTYYADSVKGRFTISRDNAKYTVYLQMNSLKPEDTAVYYGAKGGEVSQGYTDEYDYWGQGTQVTVSS	low polyreactivity
QVQLVESGGGLVQAGGSLRLSCAASGSNFINNAMGWYRQAPGKERELVAAISYSGGRTYYADSVKGRFTISRDNAKNTVYLQMNSLKPEDTAVYYCAADRSHRMNWGQGTQVTVSS	high polyreactivity
QVHLVESGGGLVQAGGSLRLSCAASGRIFWLYAMGWYRQAPGKERELVAAISSGGSTSYADSVKGRFTISRDNAKNTVYLQMNSLKPEDTAVYYCNATLLFPLLYGPESGEFDYWGQGTQVTVSS	low polyreactivity
QVQVVESGGGLVQAGGSLRLSCAASGRTFRSYAMVWYRQAPGKERELVASISRGASTNYADSVNGRFTISRDNSKNTVYLQRNSLKPEDTAVYYCAAKYSWGYTYYYWGQGTQVTVSS	high polyreactivity
QVQLVESGGGLVQAGGSLRLSCAASGRTFNVNVMGWYRQAPGKERELVAAIRYTGGSTYADSVKGRFTISRDNAKNTVYLQMNSLKPEDTAVYYCNADTFFPFDHGMDYWGQGTQVTVSS	low polyreactivity
QVQLVESGGGLVQAGGSLRLSCAASGNIFTGYMGWYRQAPRKERELVAAISRSGGRTHYADSVKGRFTISRDNAKNTVYLQMNSLKPEDTAVYYCNADVRRYTAFTKYPYAFNYWGQGTQVTVSS	high polyreactivity
QVQLVESGGGLVQAGGSLRLICAASGRTFSFYARVWYRQAPGKETEFVAAITGSGGSTYYADSVKGRFTISRDNAKNTVYLKMNSLKPEDTAVYYCAKRSAWHTYRYGYWGQGTQVTVSS	high polyreactivity
QVQLVESGGGLVQAGGSLRLSCGASGRIFYYYVMGWSRQGPGKERELVAVIDWSGGSTYYADSVKGRFTISRDNAKNTVYLQMNSLKPEDTAVYYCAKVWLKFSLAYEDYVYWGQGTQVTVSS	low polyreactivity
QVQLVESGGGLVQAGGSLRLSCASSGSTFPGNAMGWYRQAPGKERELVAAIRDRGTSTYYADSVKGRFTISRDNAKNNVYLQMNSLKPEDTAVYYCAAASRVAKGRWRLYDDWGQGTQVTVSS	high polyreactivity
QVQLVESGGVLVQAGGILRLSCAESGSIFSYYAMVWYRQAPWKERELVASISWNGTSTYYADSVKGRFTISRDNSKNTVYLQMNSLKPEDTAVYYCNVRFNYRGTYDYWGQGTQVTVSS	low polyreactivity
QVQLVESGGGLVQAGGSLRLSCAASGLTFEDNDMGWYRQAPGKERELVAAISSAGSTSYADSVKGRFTISRDNAKNTVYLQRNSLKPDDTAVYYCAKDNSPSYTPAQLDGGDDYWGQGTQVTVSS	low polyreactivity
QVQLVESGGGLVQAGGSLRLSCAASGSIFAYYAIGWYRQAPGKEREFVAAISISGGSTNYADSVKRRFTISRDNAKNTVYLQMNSLKPEDTAVYSCAATSRWSSFGFYGQYNFWGQGTQVTVSS	high polyreactivity
QVQLVESGGGIVQAGGSLRLSCAASGFTFRYNTMGWYRQAPGKERELVAAITSRGTSTYYADSVKGRFTISRDNAKNTVYLQMYSLKPEDTAVYYCNKVYFKGTTRLSVSVYKLEYWGQGTQVTVSS	high polyreactivity
QFQLVESGGGLVQAGGSLRLSCAASGRIFYVYGMGWYRQAPGKERELVAAISKRGDNTYYADSVKGRFTISRDNAKNTVYLQMNSLKPEDTAVYYCNVKRYGGRSDYWGQGTQVTVSS	high polyreactivity
QVQLVESGGGLVQAGGSLRLSCAASGNTLDWYAMGWYRQAPGKERELVAAISSAGSTSYADSVKGRFTISRDNAKNTVYLQMNSLKPEDTAVYYCNVDVYSKDANFQSFASEYDYWGQGTQVTVSS	low polyreactivity
